This note sets out measurements from patent publication US20170072028A1.

The target in the assay is C3aR1 (C3a receptor) on mouse pancreatic islet cells (mouse) (UniProt O09047). Put plainly: cell-based or functional assay.
Sequence of C3aR1 (C3a receptor) on mouse pancreatic islet cells (mouse) (O09047 whole entry): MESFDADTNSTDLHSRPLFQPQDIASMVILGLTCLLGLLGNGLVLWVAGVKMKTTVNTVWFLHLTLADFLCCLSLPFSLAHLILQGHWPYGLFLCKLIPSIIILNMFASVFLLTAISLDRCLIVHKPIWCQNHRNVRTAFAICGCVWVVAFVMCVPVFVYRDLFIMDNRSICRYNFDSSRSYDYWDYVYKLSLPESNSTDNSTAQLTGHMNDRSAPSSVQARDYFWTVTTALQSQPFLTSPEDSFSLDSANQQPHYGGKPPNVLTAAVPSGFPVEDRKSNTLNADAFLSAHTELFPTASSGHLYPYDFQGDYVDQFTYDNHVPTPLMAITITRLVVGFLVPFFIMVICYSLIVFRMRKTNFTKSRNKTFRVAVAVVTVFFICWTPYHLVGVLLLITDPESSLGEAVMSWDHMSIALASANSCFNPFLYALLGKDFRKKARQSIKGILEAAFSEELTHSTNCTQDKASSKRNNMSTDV

Take Recombinant C3a protein (ligand): the glucose-stimulated insulin secretion assay on isolated murine islets (enhancement of insulin secretion at high glucose) lay within 30 to 40%.
